Measured values as given in the nanobody polyreactivity screen of Harvey et al. (2022).

Experiment: yeast display, Sf9 membrane polyspecificity reagent, FACS + sequencing; frameworks hold sequencing errors
Summary of the method: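 Using colony PCR, genes from sorted yeast display clones were amplified, then sequenced on MiSeq at 2 × 250 and filtered by CDR length. The clones had been stained with 10% biotinylated, detergent-solubilized Sf9 membrane reagent for 1 hour at 4 °C and sorted by FACS into low and high (top ~1%) gates on anti-HA and streptavidin fluorescence. Polyreactivity labels come from the gate of origin.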

| Sequence | polyreactivity (PSR sort gate) |
| --- | --- |
| QVQLVESGGGLVQAGGSLRLSCAASGSTFYTNAMGWYRQAPGKERELVAAISGSGGSTYYADSVKGRFTISRDNAMNTVYLQMNSLKPEDTAVYYCADRSRYYDTRFDYWGQGTQVTVSS | low polyreactivity |
| QVQLVESGVGLVQAGGSLRLSCAATGFTFDENAMGWYRQAPGINYSGASTYYAYSVKGRFTISRDNAKNTVYLQMNSLKPEDTAVYYCAAEVVAQMNYWGQGTQVTVSS | low polyreactivity |
| QVHLVESGGGLVQAGGSLRLSCAASGSTIDINAMGWYRQAPGKERELVAAISSGGITNYADSVKGRFTISRDNAKNTVYLQMNSLKPEDSAVYYCATQTYTFRWFGSPGWFDYWGQGTQVTVSS | low polyreactivity |
| QVQLVESGGGLVQAGGSLRLSCAASGSTFYVYAMGWYRQAPGKERELVAAITRGGSTYYADSVKGRFTISRDNAKNTVYLQMNSLKPEDTAVYYCAKYLSGAADLVPEYDYWGQGTQVTVSS | low polyreactivity |
| QVQLVESGEGLVQAGGSLRLSCAASGITFGWYAMGWYRQAPGKERELVASISSSGSTNYADSVKGRFTISRDNAKNTVYLQMNSLKPEDTAVYYCNKDYLLSHYYIYVIEGDYWGQGTQVTVSS | low polyreactivity |
| QVQLVESGGGLVQAGGSLRLSCAASGRTFVFYAMGWYRQAPGKESEFVARITWSGGRTFYADSVKGRFTISRDNAKNTVYLQMNSLKPEDTAVYYCAARGHDAVIATRYDYWGQGTQVTVSS | high polyreactivity |
| QVQLVESGGGLVQAGGSLGLTCAASGFILAQNAMGWYRQAPGKERELVAAISRRGGRTSYADSVKGRFTISRDYAKNTVYLQMNSLKPEDTAVYYCAALPPRASSDAGGWYVAEDYWGQGTQVTVSS | high polyreactivity |
| QVQLVESGGGLVQAGGSLRLSCAASGSTFDKNAMGWYRQAPGKERELVDAISIGVSTNYADSVKGRFTISRDNAKNTVYLQMNSLKPEDTAVYYCAADLFFGAETVYYDKFDYWGQGTQVTVSS | low polyreactivity |
| QVQLQESGGLVQAGGSLRLSCAASGSISGRNVMGWYRQAPGKEREFVASITDGSSTNYADSVKGRFTISRDNAKNTVYLQMNSLKPKDTAVYYCAAYAQRAKSFGYWGRGTQVTVSS | low polyreactivity |
| QVQLVESGGGLVQAGGSLRLSCAASGYTFLGYAMGWYRQAPGKERELVAAIRRSGGRTYYADSVKGRFTISRDNAKNTVYLQMNSLKPEDTAVYYCAKGYVGEYDYWGQGTQVTVSS | high polyreactivity |
| QVQLVESGGGLVQAGGSLRLSCAASGFIFDRYAMGWSRQAPGKERELVAAITGSGGSTYYADSVKGRFTISRDNAKNTVYFQMNSLKPEDTAVYYSAAESYDYFALFYVSIPYYYWGQGTQVTVSS | high polyreactivity |
| QVQLVDSGGGLVQAGASLRLSCAASGIIFTGYAKGWYRQAPGKERDLVAAISGIGTSTYYADSVKGRFTISRDNAKNTVYLQMNSLKPEDTAVYYCAARYVSRRFLGYYYWGQGTQVTVSS | high polyreactivity |
| QVQLVESGGGLVQAGGSLRLSCAASGRIFDYYTMGWYRQAPGKESELVAAITKSGGSTYYADSVKGRFTISRDNAKNTVFLLMNILKPEDTAVYYCAAVTYDYYWFGDIEDDFWGQGTQVTVSS | low polyreactivity |
| QVQLVESGGGLVQAGGSLRLSCAASGRILYHYAMGWYRQAPGKERELVAAITFSGDTTYYADSVKGRFTISRDNAKNTVYLQMNSLKPEDTAVYYCAADDYYLGYEYWGQGTQVTVSS | high polyreactivity |
| QVQLVESGGGFVQAGGSLRLSCAASGRIFLTNAMGWYRQAPGKERELVAAITSGGSTYYADSVKGRFTISRDNAKNTVYLQMNSLKPEDPAVYYCNADTDRYSPYEYDFWGQGTQVTVSS | low polyreactivity |
| QVQLVESGGALVQAGGSLRLSCAASGRTFFGNAMGRYRQAPGKERELVAAISFSGGRTDYADSVKGRFTISRDNAKNTVFLQMNSLKPEDTAVYYCAARTYSAPRNRYYYWGQGTQVTVSS | high polyreactivity |
| QVQLVESGGGLVQAGGSLRLSCAASGSTFYWYAMGWYRQAPGKERELVAAITYSSGRTYYADSVKGRFTISRDNAKNTVYLQMNSLKPEDTAVYYCGWSALNGYDYWGQGTQVTVSS | high polyreactivity |
| QVQLVESGGGLVQAGGSLRLSCAASGIIFNWYAMGWYRQAPGKERELVAAISGSGDITYYADSVKGRFTISRDNAKNTVYLQMNSLKPEDTAVYYCAADPWTYWEDYDYWGQGTQVTVSS | low polyreactivity |
| QVQLVESGGGLVQAGGSLRLSCAASGRIFLKYTMGWYRQAPGKERELVAAISRGGSTYYADSVKGRFTISRDNAKNTVYLQMNSLKPEDTAVYYCAARRSRPTYYSTGVNYWGQGTQVTVSS | high polyreactivity |
| QDQLVESRGGLVQAGGSLRLSCAASGRIFLTNAMGWDRKAPGKERELVAAITSGGSTYYADSVKGRFTISRDNAKNTVFLQMNSVKPEDTAVYYCNADTDRYCPYEYDYWGQGTQVTVSS | low polyreactivity |
| QVQLVESGGGLVQAGGSLRLSCAASGSIFYNYAMGWYRQAPGKEREFVAAISWSGDTTYYADSVKGRFTISRDNAKNTVYLQMNSLKPEDTAVYYCAAESYIWFWRPYYYWGQGTQVTVSS | low polyreactivity |
| QVQLVESGGGLVQAGGSLRLSCAASGITFIQYAMGWYRQAPGKERELVAAISSGGRTYYADSVKGRFTISRDNAKNTVYLQMNSLKPEDTAVYYCARDIQHYGGDSWGQGTQVTVSS | low polyreactivity |

| Sequence | polyreactivity (PSR sort gate) |
| --- | --- |
| QVQLQESGGGLVQAGGSLRLSCAVSGTIFFPLDMGWYRQAPGREREYVAAIAEGTSTYYADSVKGRFTISRDNAKNTVYPQMYSLKPEDTAVYYCAAYRSTPQQFHYWGQGTQVTVSS | high polyreactivity |
| QDQLVESGGGLVQAGGSLRLSCAASVSTFRVYAMGWYRQAPGKERELVAAISSSGGITYYADSVKGRFTLSRDNAKNTVYLQMNSLKPEATAVYYCAKGTVIHVLYDYWGEGTQVTVSS | low polyreactivity |
| QVQLVESGGGLDQAGCSLRLSWAASGITSYYNAMGWYRQAPGKERELVAAITSGGSTYYADSVKGRFTISRDNAKNTVYLQMNSLKPEVTAVYYCARRSRYLWRYDYWGQGTQVTVSS | high polyreactivity |
| QDQLVESGGGLVQAGGSLRLSCAASGITFKFYAMGWYRQAPGKERELVAAISWSGGSTYYADSVKGRFTISRDNAKNTVYLQMNSLKPEDTAVYYCAAYTGWIYHTRYRRDYWGQGTQVTVSS | high polyreactivity |
| QVQLVESGGGLVQAGRSLRLSCAASGRIFRSYAMGWYRQAAGKERELVAAINYSGGNTYYADSVKGRFTISRDNAKNTVYLQLNCVKPDDTAVFYCNARGYYYSSRYGYWGQGTQVTVSS | high polyreactivity |
| QVQLVESGGGLVQAGGSLRLSCAASVSTFQYNARGWYRQAPGKEMELVAAITSRGGSTYYADSVKGRFTISRDNAKNTVYLQMNSLKPEDTALYYCAALLSKSGRFDRAKVTAYGYWGQGTQVTVSS | low polyreactivity |
| QVQLVESGGGLVQAGGSLRLSCAASGRTFPYNAMGWYRQAPGKERELVAAITSSGGSTYYADSVKGRFTISRDNAKNTVYLQMNSLKPEDTAVYYCAKGYYSPNYYYWGQGTQVTVSS | high polyreactivity |
| QVQLVESGGGLVQAGGSLRLSCAASGSTLQRYTMGLYRPAPGKERELDAAITQSGGSTFYADSVKGRFTISRDNAKNTVYLQMNSLKPEDTAVYYCAAKLTTGYYYGVPRDYWGQGTQVTVSS | high polyreactivity |
| QDQLVESGGGLVQAGGSLRLSCAASGRTFTRYAMGWYRPAPGKERELVAAISKRGGSTYYADSVKGRFTISRDNAKNTVYLQMNSLKPEDTAVYYCAADQPYHDSEYWGQGTQVTVSS | high polyreactivity |
| QVQLVESGGGLVQAGGSLRLSCAASGRILNSYAMGWYRQAPGKEREFVAAIRRSRGSPYYADSVKGRFTISRDNAKNTVYLQMNSLKPEETAVYYCAAGRRYSGSYDYWGQGTQVTVSS | high polyreactivity |
| QVQLVESGGGLVQAGGSLRLSCAASGRIFKYYTMGWYRQAPGKERELVARISSSGGSTYYADSVKGRFTISRDNAKNTVYLQMNSLKPEDTAVYYCNTRAAYHQTTHKYERDYWGQGSQVTVSS | low polyreactivity |
| QVQLVESGGGLVQAGGSLRLSCAACGTIFRRYATGSYRQAPGKERELVAAISSGGSTYADSVKGRFTISRDNAKNTVYFQMNSLKPEDTAVYYCAAYYQLGRHPGTPNGYDYWGHGTQVTVSS | low polyreactivity |
| QVQLVESGGGLVQAGGSLRLSCAASGRIIAYYAMGWYRQAPGKERELVAAISRRGGSTYYADSVKGRFTISRDNAKNTVYLQMNSLKPEDTAVYYCDTLTLESFSALYYWGQGTQVTVSS | low polyreactivity |
| QVQLVESGGGLVQAGGSLRLSCAASGSTFGIYARGGYRQAPGNERELVAAISWRGGRTYYADSVKGRFTISRDNAKNTVYLQMNSLKPEDTAVYYCAADLAVYYIFLALEFNYWGQGTQVTVSS | low polyreactivity |
| QVQLVESGGGLVQAGGSLRLSCAASGFTFQGNAKGCYIQAPGKERELVGAISYDGGSTYYADSVKGRFTISRDNAKNTVYLQMNSLKPEDTAVYYCAAYVGTWYYYWGQGTQVTVSS | high polyreactivity |
| QVQLVESGGGLVQAGGSLRLSCASSGRTFYINAMVWYRQAPGKERELVAAISIRGGRTYYADSVKGRFTISRDNAKNTVYLQMISLKPEDTAVYYCAADYGSLRQRTLYEYWGQGTQVTVSS | low polyreactivity |
| QVQLVESGGALVQAGGSLRLSCAASGITFFTNAMGWYRQAPGKERELVAAISSGGRTYYADSVKGRFTISRDNAKNTVYLQMKSLKPEDTAVYYCAKRSYFYPDYYWGQGTQVTVSS | high polyreactivity |
| QVQLVESGGGLVQAGGSLRLSCAASGFTFSFYAMGWYRQAPGKERELVAGISKRGGSTYYADSVKGRFTISRDNAKNTVYFLMNSLNPEDTAVYYCAARWYARSLTRFNYWGQGTQVTVSS | high polyreactivity |
| QVQLVESGGGLVQAGGSLRLSCAASGFIFGYYAMGWYRQAPGKERELVAVISRGGGSTHYADSVKGRFTISRDNAKNTVYLQMNSLKPEDTAVYYCAAQLGRRSATYYYWGQGTQVTVSS | high polyreactivity |
| QVQLVESGGGLVQAGGSLRLICDASGRIFQFYAMGWYRQAPGKERELVAVITRRGGSTHYADSVKGRFTISRDNAKNTVYLQMNSLNPEDTAVYYCAAEWQTQGYEYWGQGTQVTVSS | high polyreactivity |
| QVQLVESGGGLVQAGGSLRLSCAASGFTFGVYAMGWYRQAPGKERELVAAISTTVGSTYYADSVKGRFTISRDNAKNTVYLQMNSLKPEDTAVYDCAAEYTGYINYYIYEYWGQGTQVTVSS | low polyreactivity |
